Experiment [1] relates to feline IL-31. Kind of experiment: Competition binding assessment using Biacore, feline IL-31 surface. The note with it: sequential addition of 15H05 and 11E12, Biacore. Here is the method: To further characterize the IL-31 epitopes bound by mAbs 15H05 and 11 E12, blocking experiments were performed using biacore where the surface containing the IL-31 protein was generated followed by sequential addition of antibodies. FIGS. 7A and 7B show the relative binding of each antibody to IL-31 following capture of 11E12 or 15H05. The columns labeled HBS-EP (assay buffer) indicate the maximum signal obtained from each antibody binding to the IL-31 surface alone without competition. […] The sensograms related to FIG. 7A show the disassociation kinetics of both antibodies are very slow on this newly formed biacore surface therefore no additional occupation of binding sites can occur with addition of the same antibody (data not shown).
Binding of additional antibody in the presence of the same antibody is a result of the increased off rate due to the poorer quality of the surface used. Increased off rates can be seen and compared to the KD values from newly formed feline IL-31 surfaces in FIG. 2.
(Surface plasmon resonance follows binding to a sensor surface in real time, without labels.)
Target sequence in this assay (as listed by the source): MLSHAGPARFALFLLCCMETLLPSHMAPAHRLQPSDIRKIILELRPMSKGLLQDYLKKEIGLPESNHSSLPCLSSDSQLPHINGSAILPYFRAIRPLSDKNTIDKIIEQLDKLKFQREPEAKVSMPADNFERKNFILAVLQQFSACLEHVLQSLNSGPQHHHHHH

Experiment [2] deals with wildtype feline IL-31. The experiment is described as follows: Indirect ELISA, binding to wildtype feline IL-31. The procedure, abridged: (§1)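 Wildtype or 15H05-epitope-mutant feline IL-31 coated directly onto plates as capture antigen (50 ng/well). Antibodies diluted in PBST, bound antibody detected with HRP-labelled secondary and TMB for 10 min at RT. Reaction stopped with 0.1 N HCl, then OD read at 450 nm.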

Experiment [3] deals with feline IL-31. The experiment is described as follows: Inhibition of feline IL-31 induced pSTAT3 signaling in canine DH-82 cells. The format is cell-based. The following applies: feline IL-31, pSTAT3, canine DH82 cells (FIG. 3). In short, it runs like this:
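DH-82 cells primed with canine IFN-γ 10 ng/mL for 24 h, FCWF4 with feline IFN-γ 125 ng/mL for 96 h, then serum-starved 2 h. mAb pre-incubated 1 h with 1 μg/mL canine or 0.2 μg/mL feline IL-31, cells stimulated 5 min; pSTAT3 by AlphaLISA SureFire, IC50 as half-maximal signalling reduction.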
Target sequence in this assay (as listed by the source): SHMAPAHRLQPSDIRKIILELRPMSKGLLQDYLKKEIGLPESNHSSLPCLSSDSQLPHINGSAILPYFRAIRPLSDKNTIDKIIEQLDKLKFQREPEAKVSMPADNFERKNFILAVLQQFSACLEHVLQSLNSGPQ

Experiment [4] relates to wildtype feline IL-31. Kind of experiment: Biacore binding, single test concentration of antibody, feline IL-31 surface. Here is the method:
(§2) For the indirect ELISA, binding (ELISA OD) to wildtype feline IL-31 and a feline IL-31 15H05 mutant which had mutations in the monoclonal antibody 15H05 epitope region was assessed. To confirm binding, biacore analysis was performed using canine, feline, equine, human, the feline 15H05 mutant, and feline 11E12 mutant IL-31 proteins as surfaces and a single test concentration of antibody. The feline IL-31 11E12 mutant had mutations in the monoclonal antibody 11E12 epitope region.
For the indirect ELISA method, antibody binding to wildtype and feline IL-31 15H05 mutant proteins was assessed. […] In comparison, the 11E12 antibody bound to the wild-type feline IL-31 and its binding was not impacted by the mutations in the 15H05 epitope region as evidenced by the data in FIG. 4. To confirm binding, biacore analysis was performed using canine, feline, equine, human, feline 15H05 mutant, and feline 11E12 mutant IL-31 proteins as surfaces and a single test concentration of antibody. Similar to ELISA observations, all antibodies tested bound to wildtype feline IL-31. In agreement with the data described above in this section, mouse antibodies 11 E12 and 15H05 both bound to canine and feline IL-31 surfaces. […] From this group of nine fully canine antibodies, only ZIL1 and ZIL9 cross-reacted with equine IL-31. […]

The test system of experiment [5] is canine IL-31. Kind of experiment: Biacore binding, single test concentration of antibody, canine IL-31 surface. Here is the method:
as §2
(§3) For the indirect ELISA method, antibody binding to wildtype and feline IL-31 15H05 mutant proteins was assessed. […] In comparison, the 11E12 antibody bound to the wild-type feline IL-31 and its binding was not impacted by the mutations in the 15H05 epitope region as evidenced by the data in FIG. 4. To confirm binding, biacore analysis was performed using canine, feline, equine, human, feline 15H05 mutant, and feline 11E12 mutant IL-31 proteins as surfaces and a single test concentration of antibody. Similar to ELISA observations, all antibodies tested bound to wildtype feline IL-31. In agreement with the data described above in this section, mouse antibodies 11 E12 and 15H05 both bound to canine and feline IL-31 surfaces. […] From this group of nine fully canine antibodies, only ZIL1 and ZIL9 cross-reacted with equine IL-31. Of note, antibody 15H05 was the only one of all assayed herein that bound to canine, feline, and equine IL-31 indicating some level of epitope conservation across the three species. In contrast, none of the antibodies described herein bound to human IL-31. Additional biacore surfaces were used to verify ELISA observations showing differential binding of antibodies to wildtype feline IL-31 and two proteins with mutations in the 15H05 (15H05 mutant) or 11 E12 (11E12 mutant) epitopes. […] Differing results can be attributed to differences in the two assay methodologies.

For experiment [6], the system named is feline IL-31 15H05 mutant. Kind of experiment: Indirect ELISA, binding to feline IL-31 15H05 mutant. The following applies: compared with wildtype. In short, it runs like this:
as §1
A general note: An ELISA detects its analyte on a solid surface through an enzyme-linked reagent.

Experiment [7] relates to feline 11E12 mutant IL-31. Kind of experiment: Biacore binding, single test concentration of antibody, feline 11E12 mutant IL-31 surface. Here is the method:
as §2, §3

canine IL-31, sequence (as listed by the source): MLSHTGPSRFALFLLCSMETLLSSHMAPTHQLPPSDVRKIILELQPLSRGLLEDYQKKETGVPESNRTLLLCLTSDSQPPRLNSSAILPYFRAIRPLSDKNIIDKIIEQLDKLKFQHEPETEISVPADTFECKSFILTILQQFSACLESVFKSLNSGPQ
feline IL-31 15H05 mutant, sequence (as listed by the source, change not shown): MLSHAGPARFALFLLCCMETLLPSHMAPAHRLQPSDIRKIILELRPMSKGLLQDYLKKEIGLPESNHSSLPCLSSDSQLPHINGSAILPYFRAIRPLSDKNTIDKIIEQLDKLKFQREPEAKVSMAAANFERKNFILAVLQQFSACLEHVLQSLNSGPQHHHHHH
feline 11E12 mutant IL-31, sequence (as listed by the source, change not shown): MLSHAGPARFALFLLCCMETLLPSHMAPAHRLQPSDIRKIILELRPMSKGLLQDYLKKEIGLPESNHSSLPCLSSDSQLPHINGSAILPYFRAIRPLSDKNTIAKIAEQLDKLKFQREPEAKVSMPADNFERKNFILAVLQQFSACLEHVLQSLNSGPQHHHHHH

B1: 15H05: mouse anti IL-31 monoclonal antibody, VH SEQ ID NO: 67, VL SEQ ID NO: 69 (antibody, listed as Mus musculus, V domains shown)
VH: QVQLQQSAAELARPGASVKMSCKTSGYTFTSYTIHWIKQRPGQGLEWIGNINPTSGYTENNQRFKDKTTLTVDRSSNTAYLQLHSLTSEDSAVYFCARWGFKYDGEWSFDVWGAGTTVTVSS
VL: DIQMNQSPSSLSASLGDTITVTCRASQGISIWLSWYQQKPGNIPKVLINKASNLHIGVPPRFSGSGSGTHFTLTITSLQPEDIATYYCLQSQTYPLTFGGGTKLEIN
Consider B1, for which the “competition binding on feline IL-31” value in experiment [1] is “no overlap in the epitope recognized”. For the same molecule, the “binding to wildtype feline IL-31 (ELISA)” value in experiment [2] was “capable of binding”. The “potency (IC50) against feline IL-31 in canine DH82 cells” value in experiment [3] is reported as “comparable”. In experiment [4], the “binding to wildtype feline IL-31 (Biacore)” value is on record as “bound”. For the same molecule, the “binding to canine IL-31 (Biacore)” value in experiment [5] is listed as “bound”. The “binding to feline IL-31 15H05 mutant (ELISA)” value in experiment [6] was “complete loss”. Moreover, the “binding to feline 11E12 mutant IL-31 (Biacore)” value in experiment [7] is on record as “retained binding”.

(Values after patent US11433139B2, “Peptide vaccines against interleukin-31” (Zoetis Services LLC, priority 2018, dated 2022).)
